Experimental data from patent US20100303812A1 (SMART TARGETING, published 2010).

T1: human DLL1 (on transfected CHO cells) (human, UniProt O00548 18-723)
T1 construct: whole, on cells; also called delta-like-1
T1 sequence (looked up): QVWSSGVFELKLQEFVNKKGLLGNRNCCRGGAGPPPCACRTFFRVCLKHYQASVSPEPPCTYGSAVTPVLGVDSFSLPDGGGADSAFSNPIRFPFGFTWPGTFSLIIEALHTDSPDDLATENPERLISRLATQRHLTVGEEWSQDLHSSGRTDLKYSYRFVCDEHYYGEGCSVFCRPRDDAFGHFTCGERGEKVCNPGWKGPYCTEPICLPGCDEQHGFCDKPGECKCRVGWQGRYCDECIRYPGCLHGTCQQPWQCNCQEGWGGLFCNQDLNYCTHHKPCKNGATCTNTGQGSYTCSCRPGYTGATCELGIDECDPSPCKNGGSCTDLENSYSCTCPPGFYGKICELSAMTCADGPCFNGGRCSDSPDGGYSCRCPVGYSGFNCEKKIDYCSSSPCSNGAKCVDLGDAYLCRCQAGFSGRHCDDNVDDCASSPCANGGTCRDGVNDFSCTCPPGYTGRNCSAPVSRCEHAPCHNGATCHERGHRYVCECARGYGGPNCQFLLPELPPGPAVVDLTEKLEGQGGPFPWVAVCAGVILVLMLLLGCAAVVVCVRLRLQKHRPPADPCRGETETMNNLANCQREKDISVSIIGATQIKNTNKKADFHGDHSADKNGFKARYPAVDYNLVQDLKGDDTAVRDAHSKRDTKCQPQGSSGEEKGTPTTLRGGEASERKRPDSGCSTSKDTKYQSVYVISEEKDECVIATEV

B1: cSTL4 (antibody, V domains shown)
VH: EVQLQQSGPELVKPGASVKMSCKASGYTFTSYVMHWVKQKPGQGLEWIGYIIPYNDGTKYNEKFKGKATLTSDKSSSTAYMELSSLTSEDSAVYYCARSEDYDHFDYWGQGTTVTVSS
VL: QIVLSQSPVILSASPGEKVTMTCRASSSVSFMHWYQQKPGSSPKPWIYATSNLTSGVPTRFSGSGSGTSYSLTISRVEAEDAATYYCQQWSSNPFTFGSGTKLEIKR
notes: Chimeric form of STL4: mouse VH and VL fused to human IgG heavy and kappa constant regions, expressed from pCAcc vectors; also called chimeric anti-Dll4 antibody; chimeric antibody; not shown: human IgG heavy constant region CH1-H-CH2-CH3; human immunoglobulin kappa light chain constant region
B2: STL4 (antibody, V domains shown)
VH: B1 VH
VL: B1 VL
notes: Mouse monoclonal antibody (BALB/c hybridoma, purified from ascites); mouse IgG1 served as the control; also called anti-DLL4 antibody; anti-Dll4-antibody (STL4)

Key:
[1] = molecular target: T2, pure recombinant Dll4 (human, UniProt Q9NR61 27-524); test: SPR, Biacore A100; immobilized recombinant Dll4, antibody at 20, 10, 5, 2.5 and 1.2 µg/ml
T2 construct: also called recombinant DLL4 ligand; immobilized Dll4

[2] = molecular target: T3, mouse DLL4 (on transfected CHO cells) (mouse, UniProt Q9JI71 27-686); test: flow cytometry on transfected CHO cells (STL4 as one of 'all three')
T3 construct: also called murine DLL4; murine Dll4

[3] = molecular target: T4, human Jagged1 (on transfected CHO cells) (human, UniProt P78504 34-1218); test: flow cytometry on transfected CHO cells (STL4 as one of the three)
T4 construct: whole, on cells

[4] = molecular target: T1, human DLL1 (on transfected CHO cells); test: as above
[5] = molecular target: T5, human Jagged2 (on transfected CHO cells) (human, UniProt Q9Y219 24-1238); test: as above
T5 construct: whole, on cells
T5 sequence (Q9Y219 24-1238): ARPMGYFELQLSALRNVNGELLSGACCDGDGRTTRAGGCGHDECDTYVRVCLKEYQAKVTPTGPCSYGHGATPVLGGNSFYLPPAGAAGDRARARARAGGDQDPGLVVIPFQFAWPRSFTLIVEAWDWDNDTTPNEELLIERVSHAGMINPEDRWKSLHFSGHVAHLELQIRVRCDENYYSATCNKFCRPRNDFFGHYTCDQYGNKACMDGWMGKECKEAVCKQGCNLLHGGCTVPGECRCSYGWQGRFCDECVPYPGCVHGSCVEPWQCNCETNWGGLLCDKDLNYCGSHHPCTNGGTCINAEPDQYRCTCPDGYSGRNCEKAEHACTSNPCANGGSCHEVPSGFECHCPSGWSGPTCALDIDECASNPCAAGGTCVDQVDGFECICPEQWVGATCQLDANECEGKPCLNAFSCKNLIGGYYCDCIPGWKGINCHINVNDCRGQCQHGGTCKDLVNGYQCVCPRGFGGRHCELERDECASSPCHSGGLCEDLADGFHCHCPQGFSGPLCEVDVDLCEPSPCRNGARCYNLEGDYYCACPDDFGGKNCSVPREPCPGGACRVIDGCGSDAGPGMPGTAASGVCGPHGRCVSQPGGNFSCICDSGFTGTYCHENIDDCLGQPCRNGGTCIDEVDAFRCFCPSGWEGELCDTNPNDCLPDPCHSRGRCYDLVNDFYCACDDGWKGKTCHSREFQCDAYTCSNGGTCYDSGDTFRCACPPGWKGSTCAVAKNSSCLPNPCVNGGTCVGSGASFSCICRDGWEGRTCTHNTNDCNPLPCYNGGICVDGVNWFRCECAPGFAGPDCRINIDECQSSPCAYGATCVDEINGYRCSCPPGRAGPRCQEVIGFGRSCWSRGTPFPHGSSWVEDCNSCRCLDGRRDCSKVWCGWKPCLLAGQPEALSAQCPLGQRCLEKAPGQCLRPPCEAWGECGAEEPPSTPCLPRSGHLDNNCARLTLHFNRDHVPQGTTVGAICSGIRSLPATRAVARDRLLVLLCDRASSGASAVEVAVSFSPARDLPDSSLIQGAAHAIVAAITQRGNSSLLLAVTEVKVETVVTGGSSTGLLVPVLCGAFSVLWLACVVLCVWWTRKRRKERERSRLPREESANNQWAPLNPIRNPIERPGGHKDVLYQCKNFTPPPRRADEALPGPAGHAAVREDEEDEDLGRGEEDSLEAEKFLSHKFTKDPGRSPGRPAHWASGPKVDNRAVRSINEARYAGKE

T2 sequence (Q9NR61 27-524 limits assumed): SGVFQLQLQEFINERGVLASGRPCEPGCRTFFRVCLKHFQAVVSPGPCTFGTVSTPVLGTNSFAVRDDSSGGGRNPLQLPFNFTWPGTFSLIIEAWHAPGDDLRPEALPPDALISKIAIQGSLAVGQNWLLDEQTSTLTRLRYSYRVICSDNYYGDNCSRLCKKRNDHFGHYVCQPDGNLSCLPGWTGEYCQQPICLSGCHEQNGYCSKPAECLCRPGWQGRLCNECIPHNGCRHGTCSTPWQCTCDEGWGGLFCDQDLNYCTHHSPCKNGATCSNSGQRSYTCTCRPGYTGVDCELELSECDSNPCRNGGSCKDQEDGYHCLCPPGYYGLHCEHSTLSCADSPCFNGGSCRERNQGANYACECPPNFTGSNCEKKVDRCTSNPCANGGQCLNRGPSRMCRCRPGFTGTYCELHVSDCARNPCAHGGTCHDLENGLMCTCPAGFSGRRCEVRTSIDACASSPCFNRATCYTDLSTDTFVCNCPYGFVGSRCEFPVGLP
T3 sequence (Q9JI71 other isoform, or with tags, fused parts or gaps limits assumed): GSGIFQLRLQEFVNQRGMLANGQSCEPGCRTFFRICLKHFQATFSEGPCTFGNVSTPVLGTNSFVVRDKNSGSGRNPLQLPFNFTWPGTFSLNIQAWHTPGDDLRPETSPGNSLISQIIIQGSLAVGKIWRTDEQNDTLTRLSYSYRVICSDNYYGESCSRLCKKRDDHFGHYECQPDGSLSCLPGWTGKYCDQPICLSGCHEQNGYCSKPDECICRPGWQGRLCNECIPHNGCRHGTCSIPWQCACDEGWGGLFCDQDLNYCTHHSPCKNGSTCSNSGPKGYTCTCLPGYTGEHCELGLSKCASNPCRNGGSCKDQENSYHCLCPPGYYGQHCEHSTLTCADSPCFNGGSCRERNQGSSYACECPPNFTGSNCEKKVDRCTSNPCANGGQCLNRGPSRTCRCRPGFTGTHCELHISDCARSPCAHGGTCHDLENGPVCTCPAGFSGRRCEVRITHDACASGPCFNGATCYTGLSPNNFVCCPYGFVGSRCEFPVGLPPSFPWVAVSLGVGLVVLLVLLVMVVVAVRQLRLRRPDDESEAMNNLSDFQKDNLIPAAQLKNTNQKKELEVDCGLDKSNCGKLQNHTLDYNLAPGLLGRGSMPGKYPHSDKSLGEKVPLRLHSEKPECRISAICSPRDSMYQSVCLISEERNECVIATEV
T4 sequence (P78504 34-1218): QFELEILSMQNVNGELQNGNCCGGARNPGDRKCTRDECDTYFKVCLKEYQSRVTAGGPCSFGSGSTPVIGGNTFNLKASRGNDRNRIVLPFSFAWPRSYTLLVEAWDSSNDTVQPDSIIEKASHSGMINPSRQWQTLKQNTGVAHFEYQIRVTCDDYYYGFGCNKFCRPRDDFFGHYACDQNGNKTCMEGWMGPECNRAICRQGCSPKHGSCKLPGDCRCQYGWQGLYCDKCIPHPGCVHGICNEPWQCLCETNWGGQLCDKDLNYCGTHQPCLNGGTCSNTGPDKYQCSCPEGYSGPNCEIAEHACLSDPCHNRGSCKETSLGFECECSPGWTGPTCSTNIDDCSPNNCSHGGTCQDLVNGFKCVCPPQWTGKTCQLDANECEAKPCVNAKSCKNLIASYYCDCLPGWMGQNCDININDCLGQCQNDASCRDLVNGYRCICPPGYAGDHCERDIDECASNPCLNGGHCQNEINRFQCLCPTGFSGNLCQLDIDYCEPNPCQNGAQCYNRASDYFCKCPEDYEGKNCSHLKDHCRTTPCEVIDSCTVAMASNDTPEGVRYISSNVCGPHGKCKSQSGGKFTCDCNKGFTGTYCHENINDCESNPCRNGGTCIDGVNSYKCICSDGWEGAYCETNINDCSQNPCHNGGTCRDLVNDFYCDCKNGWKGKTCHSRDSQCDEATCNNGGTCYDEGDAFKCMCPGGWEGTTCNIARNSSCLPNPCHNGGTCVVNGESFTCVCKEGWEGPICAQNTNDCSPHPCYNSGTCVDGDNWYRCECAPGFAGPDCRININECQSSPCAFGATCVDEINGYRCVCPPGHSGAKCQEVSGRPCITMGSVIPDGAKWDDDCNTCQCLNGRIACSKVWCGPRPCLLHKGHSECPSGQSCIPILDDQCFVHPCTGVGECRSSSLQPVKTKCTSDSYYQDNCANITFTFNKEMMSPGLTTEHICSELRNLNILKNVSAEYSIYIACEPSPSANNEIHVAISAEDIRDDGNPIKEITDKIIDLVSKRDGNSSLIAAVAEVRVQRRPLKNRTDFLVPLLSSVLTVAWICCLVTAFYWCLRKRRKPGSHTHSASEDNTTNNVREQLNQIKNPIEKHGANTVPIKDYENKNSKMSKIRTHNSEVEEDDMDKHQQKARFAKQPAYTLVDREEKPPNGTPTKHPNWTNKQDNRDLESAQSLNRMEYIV

| Binder | Ka [1] [M⁻¹] | Kd [1] [nM] | koff [1] [s⁻¹] | binding result [2] | binding result [3] | binding result [4] | binding result [5] |
| --- | --- | --- | --- | --- | --- | --- | --- |
| B1 | 2.45e+09 | 0.408 | 8.79e-05 | – | – | – | – |
| B2 | – | – | – | no binding | no binding | no binding | no binding |
